The results in this text go back to US20260049138A1 (Chugai, published 2026).

The chains are these.
B1: GLS3000 S56F one-arm antibody (antibody, human IgG1, kappa, L234A L235A, N297A, name in Kabat numbering)
heavy: QVQLVESGGGVVQPGRSLRLSCAASGFTFSNAWMHWVRQAPGKGLEWVAQIKAKSNNYATYYAESVKGRFTISRDDSKNSLYLQMNSLKTEDTAVYYCRYVHYGAYYGVDAWGQGTTVTVSSASTKGPSVFPLAPSSKSTSGGTAALGCLVKDYFPEPVTVSWNSGALTSGVHTFPAVLQSSGLYSLSSVVTVPSSSLGTQTYICNVNHKPSNTKVDKKVEPKSCDKTHTCPPCPAPEAAGGPSVFLFPPKPKDTLMISRTPEVTCVVVDVSHEDPEVKFNWYVDGVEVHNAKTKPREEQYASTYRVVSVLTVLHQDWLNGKEYKCKVSNKALPAPIEKTISKAKGQPREPQVYTLPPSRCELTKNQVSLSCAVKGFYPSDIAVEWESNGQPENNYKTTPPVLDSDGSFFLVSKLTVDKSRWQQGNVFSCSVMHEALHNHYTQKSLSLSPDYKDDDDK
chain: EPKSSDKTHTCPPCPAPELLGGPSVFLFPPKPKDTLMISRTPEVTCVVVDVSHEDPEVKFNWYVDGVEVHNAKTKPREEQYNSTYRVVSVLTVLHQDWLNGKEYKCKVSNKALPAPIEKTISKAKGQPREPQVCTLPPSRDELTKNQVSLWCLVKGFYPSDIAVEWESNGQPENNYKTTPPVLDSDGSFFLYSKLTVDKSRWQQGNVFSCSVMHEALHNRYTQKSLSLSP
light: DIVMTQSPLSLPVTPGEPASISCRSSQSLVHSNRNTYLHWYQQKPGQAPRLLIYKVSNRFFGVPDRFSGSGSGTDFTLKISRVEAEDVGVYYCGQGTQVPYTFGQGTKLEIKRTVAAPSVFIFPPSDEQLKSGTASVVCLLNNFYPREAKVQWKVDNALQSGNSQESVTEQDSKDSTYSLSSTLTLSKADYEKHKVYACEVTHQGLSSPVTKSFNRGEC
B2: GLS3000 S56H one-arm antibody (antibody, human IgG1, kappa, L234A L235A, N297A, name in Kabat numbering)
heavy: B1 heavy
chain: B1 chain
light: B1 light with F61H
B3: GLS3000 S56G one-arm antibody (antibody, human IgG1, kappa, L234A L235A, N297A, name in Kabat numbering)
heavy: B1 heavy
chain: B1 chain
light: B1 light with F61G
B4: GLS3000 S56Y one-arm antibody (antibody, human IgG1, kappa, L234A L235A, N297A, name in Kabat numbering)
heavy: B1 heavy
chain: B1 chain
light: B1 light with F61Y
B5: GLS3000 S56K one-arm antibody (antibody, human IgG1, kappa, L234A L235A, N297A, name in Kabat numbering)
heavy: B1 heavy
chain: B1 chain
light: B1 light with F61K
B6: GLS3000 T31I one-arm antibody (antibody, human IgG1, kappa, L234A L235A, N297A, name in Kabat numbering)
heavy: B1 heavy
chain: B1 chain
light: B1 light with T36I, F61S
B7: GLS3000 T92A one-arm antibody (antibody, human IgG1, kappa, L234A L235A, N297A, name in Kabat numbering)
heavy: B1 heavy
chain: B1 chain
light: B1 light with F61S, T97A
B8: GLS3000 S56T one-arm antibody (antibody, human IgG1, kappa, L234A L235A, N297A, name in Kabat numbering)
heavy: B1 heavy
chain: B1 chain
light: B1 light with F61T
B9: GLS3000 S56M one-arm antibody (antibody, human IgG1, kappa, L234A L235A, N297A, name in Kabat numbering)
heavy: B1 heavy
chain: B1 chain
light: B1 light with F61M
B10: GLS3000 S56R one-arm antibody (antibody, human IgG1, kappa, L234A L235A, N297A, name in Kabat numbering)
heavy: B1 heavy
chain: B1 chain
light: B1 light with F61R
B11: GLS3000 T31D one-arm antibody (antibody, human IgG1, kappa, L234A L235A, N297A, name in Kabat numbering)
heavy: B1 heavy
chain: B1 chain
light: B1 light with T36D, F61S
B12: GLS3000 S56I one-arm antibody (antibody, human IgG1, kappa, L234A L235A, N297A, name in Kabat numbering)
heavy: B1 heavy
chain: B1 chain
light: B1 light with F61I
B13: GLS3000 S56P one-arm antibody (antibody, human IgG1, kappa, L234A L235A, N297A, name in Kabat numbering)
heavy: B1 heavy
chain: B1 chain
light: B1 light with F61P
B14: GLS3000 S56L one-arm antibody (antibody, human IgG1, kappa, L234A L235A, N297A, name in Kabat numbering)
heavy: B1 heavy
chain: B1 chain
light: B1 light with F61L
B15: GLS3000 T31N one-arm antibody (antibody, human IgG1, kappa, L234A L235A, N297A, name in Kabat numbering)
heavy: B1 heavy
chain: B1 chain
light: B1 light with T36N, F61S
B16: GLS3000 T31K one-arm antibody (antibody, human IgG1, kappa, L234A L235A, N297A, name in Kabat numbering)
heavy: B1 heavy
chain: B1 chain
light: B1 light with T36K, F61S
B17: GLS3000 S56W one-arm antibody (antibody, human IgG1, kappa, L234A L235A, N297A, name in Kabat numbering)
heavy: B1 heavy
chain: B1 chain
light: B1 light with F61W
B18: GLS3000 S56Q one-arm antibody (antibody, human IgG1, kappa, L234A L235A, N297A, name in Kabat numbering)
heavy: B1 heavy
chain: B1 chain
light: B1 light with F61Q
B19: GLS3000 S56N one-arm antibody (antibody, human IgG1, kappa, L234A L235A, N297A, name in Kabat numbering)
heavy: B1 heavy
chain: B1 chain
light: B1 light with F61N
B20: GLS3000 T31E one-arm antibody (antibody, human IgG1, kappa, L234A L235A, N297A, name in Kabat numbering)
heavy: B1 heavy
chain: B1 chain
light: B1 light with T36E, F61S
B21: GLS3000 S56V one-arm antibody (antibody, human IgG1, kappa, L234A L235A, N297A, name in Kabat numbering)
heavy: B1 heavy
chain: B1 chain
light: B1 light with F61V
B22: GLS3000 T31P one-arm antibody (antibody, human IgG1, kappa, L234A L235A, N297A, name in Kabat numbering)
heavy: B1 heavy
chain: B1 chain
light: B1 light with T36P, F61S

Changes are numbered by the printed parent chain. Names may count otherwise.

For the assay, the target named is T1, CD3ε homodimer protein (human, UniProt P07766 23-126, limits assumed).
T1 construct: also called CD3 (CD3ε)
T1 sequence (P07766 23-126 limits assumed): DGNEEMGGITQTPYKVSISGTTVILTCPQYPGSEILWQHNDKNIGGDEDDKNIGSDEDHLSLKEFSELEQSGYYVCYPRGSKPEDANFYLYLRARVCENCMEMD
In words: SPR Biacore T200, CD3ε homodimer on chip.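 Note: Light-chain single-residue variant antibodies injected over amine-coupled CD3ε homodimer on a CM4 chip at 25 °C, bound amount divided by that of the GLS3000-containing antibody.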
Consider B1, for which the “ratio of amount bound vs unaltered GLS3000” value (“ratio of amount bound” for short) worked out at 1.32.
On to B2, for which the “ratio of amount bound” value is 1.05.
Take B3: the “ratio of amount bound” value is 0.92.
Then B4, with 1.46.
Under B5 stands 1.46; under B6, 0.97; under B7, 0.63.
Under B8 stands 0.97.
Take B9: the “ratio of amount bound” value came to 1.05.
For the molecule B10, the “ratio of amount bound” value was determined as 1.36.
In the case of B11, the “ratio of amount bound” value was 0.23.
On to B12, for which the “ratio of amount bound” value is 0.99.
Then B13, with 0.95; and B14, with 1.02.
Then B15, with 0.32; and B16, with 1.04; and B17, with 1.38.
Then B18, with 1.04; and B19, with 0.92; and B20, with 0.49.
In the case of B21, the “ratio of amount bound” value is 0.95.
Then B22, with 0.31.
